Measured values taken from patent US20220259593A1, “CONTROL OF MAMMALIAN GENE DOSAGE USING CRISPR” (The Regents of the University of California, priority 2019, published 2022).
Where a chain is given by its changes, count along the chain named.

Test system: K562 CRISPRi cells
Experiment: Constant region variant library pooled growth screen, K562
Format: cell-based, human
Details: sgRNA constant region variants; activity relative to the original, un-modified constant region cr995
In short: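 Pooled library transduced into K562 CRISPRi cells in duplicate, puromycin-selected, grown at >2000× coverage and sampled after 4 to 8 days. Phenotypes per targeting sequence:constant region pair were normalized to the unmodified-scaffold pairing to give relative activity.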

B1: cr836 (nucleic acid)
guide: GTTTAAGAGCTAAGCTGGAAACAGCATAGCAAGTTTAAATAAGGCTAGTCCGTTATCAATTTGAAAAAGTGGCACCGAGTCGGTGCT
modifications: listed as DNA, chemistry not fully specified
  Mean relative activity: 0.7574

B2: cr437 (nucleic acid)
guide: B1 guide with T60C, T61G, A68C, C76A, G77C, C81G, G82T
modifications: listed as DNA, chemistry not fully specified
  Mean relative activity: 0.6854

B3: cr596 (nucleic acid)
guide: B1 guide with T60C, C73G
modifications: listed as DNA, chemistry not fully specified
  Mean relative activity: 0.69

B4: cr890 (nucleic acid)
guide: B1 guide with T60C, A78C, T87C
modifications: listed as DNA, chemistry not fully specified
  Mean relative activity: 0.7513

B5: cr725 (nucleic acid)
guide: B1 guide with G33A, T60C
modifications: listed as DNA, chemistry not fully specified
  Mean relative activity: 0.7094

B6: cr635 (nucleic acid)
guide: B1 guide with T60C, A78G
modifications: listed as DNA, chemistry not fully specified
  Mean relative activity: 0.7174

B7: cr501 (nucleic acid)
guide: B1 guide with T60C, A65G, G72T, C86A
modifications: listed as DNA, chemistry not fully specified
  Mean relative activity: 1.052

B8: cr505 (nucleic acid)
guide: B1 guide with A28T, A42G, T60C, G79T
modifications: listed as DNA, chemistry not fully specified
  Mean relative activity: 0.7459

B9: cr658 (nucleic acid)
guide: B1 guide with C45A, G48T, T62C, A67G, G69A
modifications: listed as DNA, chemistry not fully specified
  Mean relative activity: 0.6883

B10: cr734 (nucleic acid)
guide: B1 guide with A28C, A55C, T60C, G71C
modifications: listed as DNA, chemistry not fully specified
  Mean relative activity: 0.6906

B11: cr539 (nucleic acid)
guide: B1 guide with G44T, C50A, T62G, A67C, G69A
modifications: listed as DNA, chemistry not fully specified
  Mean relative activity: 0.7135

B12: cr552 (nucleic acid)
guide: B1 guide with T53A, A55G, T56G, T60C
modifications: listed as DNA, chemistry not fully specified
  Mean relative activity: 0.6864

B13: cr341 (nucleic acid)
guide: B1 guide with G44T, C50A, T60C, G72C, C73T, G85A, C86G
modifications: listed as DNA, chemistry not fully specified
  Mean relative activity: 0.7299

B14: cr278 (nucleic acid)
guide: B1 guide with T49C, T60C, G79A
modifications: listed as DNA, chemistry not fully specified
  Mean relative activity: 0.7368

B15: cr292 (nucleic acid)
guide: B1 guide with T60C, G71C
modifications: listed as DNA, chemistry not fully specified
  Mean relative activity: 0.6902

B16: cr439 (nucleic acid)
guide: B1 guide with T16A, T60C
modifications: listed as DNA, chemistry not fully specified
  Mean relative activity: 0.7506

B17: cr168 (nucleic acid)
guide: B1 guide with G44A, C50T, T60A, G69T
modifications: listed as DNA, chemistry not fully specified
  Mean relative activity: 0.7238

B18: cr742 (nucleic acid)
guide: B1 guide with C45A, G48T, T60C, T62C, A67G
modifications: listed as DNA, chemistry not fully specified
  Mean relative activity: 0.7141

B19: cr575 (nucleic acid)
guide: B1 guide with T60C, C76G
modifications: listed as DNA, chemistry not fully specified
  Mean relative activity: 0.6955

B20: cr279 (nucleic acid)
guide: B1 guide with T60C, T80C, T87C
modifications: listed as DNA, chemistry not fully specified
  Mean relative activity: 0.6783

B21: cr622 (nucleic acid)
guide: B1 guide with A59G, T60C, T62G, A67C, T70C
modifications: listed as DNA, chemistry not fully specified
  Mean relative activity: 1.099

B22: cr474 (nucleic acid)
guide: B1 guide with T60C, G77T
modifications: listed as DNA, chemistry not fully specified
  Mean relative activity: 0.7254

B23: cr779 (nucleic acid)
guide: B1 guide with T60A, G69T, C73T, C75A, G83T, G85A
modifications: listed as DNA, chemistry not fully specified
  Mean relative activity: 0.7512

B24: cr607 (nucleic acid)
guide: B1 guide with T60C, G79A, T80C
modifications: listed as DNA, chemistry not fully specified
  Mean relative activity: 0.6847

B25: cr522 (nucleic acid)
guide: B1 guide with A28T, A55G, T60C, T80C
modifications: listed as DNA, chemistry not fully specified
  Mean relative activity: 0.7084

B26: cr867 (nucleic acid)
guide: B1 guide with C50T, T60C
modifications: listed as DNA, chemistry not fully specified
  Mean relative activity: 0.7502

B27: cr645 (nucleic acid)
guide: B1 guide with G44C, C50G, T60C, T61G, A68C, C76G, G82C
modifications: listed as DNA, chemistry not fully specified
  Mean relative activity: 0.7179

B28: cr568 (nucleic acid)
guide: B1 guide with A59T, T60C, T61G, A68C, T70A, C75A, G83T
modifications: listed as DNA, chemistry not fully specified
  Mean relative activity: 1.054

B29: cr695 (nucleic acid)
guide: B1 guide with T53A, A55G, T60C, A64T
modifications: listed as DNA, chemistry not fully specified
  Mean relative activity: 0.751

B30: cr763 (nucleic acid)
guide: B1 guide with T49C, T60C
modifications: listed as DNA, chemistry not fully specified
  Mean relative activity: 0.7264

B31: cr877 (nucleic acid)
guide: B1 guide with T60C, T61C, A68G, G72C, C76G, G82C, C86G
modifications: listed as DNA, chemistry not fully specified
  Mean relative activity: 0.686

B32: cr875 (nucleic acid)
guide: B1 guide with A59C, T60C, T62G, A67C, T70G, G77C, C81G
modifications: listed as DNA, chemistry not fully specified
  Mean relative activity: 0.743

B33: cr887 (nucleic acid)
guide: B1 guide with A31C, A47C, T60C, G63C
modifications: listed as DNA, chemistry not fully specified
  Mean relative activity: 0.7504

B34: cr852 (nucleic acid)
guide: B1 guide with T60G, T61A, T62A, G63A, A67T, G69C
modifications: listed as DNA, chemistry not fully specified
  Mean relative activity: 0.7542

B35: cr426 (nucleic acid)
guide: B1 guide with G33A, T53C, T60C
modifications: listed as DNA, chemistry not fully specified
  Mean relative activity: 0.7265

B36: cr117 (nucleic acid)
guide: B1 guide with T60C, A64G, A78G
modifications: listed as DNA, chemistry not fully specified
  Mean relative activity: 0.6966

B37: cr594 (nucleic acid)
guide: B1 guide with A28T, A42G, T53C, T60C
modifications: listed as DNA, chemistry not fully specified
  Mean relative activity: 0.7395

B38: cr555 (nucleic acid)
guide: B1 guide with G44T, C50A, T60C
modifications: listed as DNA, chemistry not fully specified
  Mean relative activity: 0.719

B39: cr457 (nucleic acid)
guide: B1 guide with T60C, G85T
modifications: listed as DNA, chemistry not fully specified
  Mean relative activity: 0.7254

B40: cr015 (nucleic acid)
guide: B1 guide with A6C, T60C
modifications: listed as DNA, chemistry not fully specified
  Mean relative activity: 0.7022

B41: cr723 (nucleic acid)
guide: B1 guide with T60C, T61C, A68G, C75G, G83C
modifications: listed as DNA, chemistry not fully specified
  Mean relative activity: 1.054
